Experimental data taken from the supplement of paper PMC9732359.
± gives the uncertainty stated by the source.

Assay: protein stability index of a GFP-peptide fusion (yeast GPS) (PSI 1-4); higher = more stable; sorted into four equal gates, so the index is relative within each strain
Outline: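 Sequencing reads from sorted gates were used to score each peptide. The library consisted of tiled 17-residue yeast protein peptides fused downstream of GFP on a Cherry-expressing plasmid, pooled and carried in yeast. Mid-log cultures in leucine-free medium were split into four equal gates by GFP/Cherry ratio, and each gate's plasmids were PCR-amplified and Illumina-sequenced. The protein stability index adds up, over all gates, the read frequency multiplied by the gate number.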

Sequence | protein stability index (doa10∆) | protein stability index (pdr5∆) | protein stability index (san1∆) | protein stability index (ubr1∆)
VEASRRRRSSTNKSKRP [MED1] | 3.19 ± 0.066 | 3.31 ± 0.056 | 3.22 ± 0.044 | 3.28 ± 0.043
YGTATADDADIEMKDVS [MED1] | 3 ± 0.13 | 3.17 ± 0.081 | 3.01 ± 0.061 | 3.15 ± 0.071
TKIKPFIKVVNYNHLLP [RPL27A] | 2.49 ± 0.072 | 2.35 ± 0.094 | 2.77 ± 0.093 | 2.64 ± 0.11
VFYAELNEFFTRELAEE [RPS3] | 3.16 ± 0.13 | 3.24 ± 0.16 | 3.26 ± 0.09 | 3.28 ± 0.082
SITTGNDNENIVNNDLP [MED2] | 2.79 ± 0.051 | 2.78 ± 0.052 | 2.57 ± 0.054 | 2.87 ± 0.05
DEDDDQPMISPDNSIFG [SWI3] | 3.22 ± 0.078 | 3.35 ± 0.083 | 3.2 ± 0.086 | 2.94 ± 0.088
LARASGNYVIIIGHNPD [RPL2A] | 2.8 ± 0.087 | 2.89 ± 0.089 | 2.85 ± 0.096 | 2.68 ± 0.097
TPGEVASKAIVQMAKIL [MCD1] | 3.26 ± 0.14 | 3 ± 0.11 | – | –
MSNTLFDDIFQVSEVDP [RPB8] | 3.02 ± 0.084 | 2.77 ± 0.098 | 2.85 ± 0.1 | 3.08 ± 0.054
NNIIRIQQLISQFLKRV [SNF11] | 2.1 ± 0.039 | 2.14 ± 0.057 | 2.13 ± 0.065 | 2.3 ± 0.045
KYLSDIMELPGVYSDDE [SRP68] | 3.14 ± 0.25 | 3.08 ± 0.17 | 3.59 ± 0.17 | 3.36 ± 0.11
MMVNNQTMQLIKNVQDL [SRB6] | 2.84 ± 0.25 | 2.3 ± 0.16 | 1.64 ± 0.13 | 3.03 ± 0.17
AQYGIKALPIRRDDEVL [RPL26A] | 3.63 ± 0.18 | 3.32 ± 0.17 | 3.43 ± 0.061 | 3.28 ± 0.14
YDPIKRIDAFNALEHKY [SSN3] | 2.83 ± 0.058 | 2.85 ± 0.041 | 2.73 ± 0.05 | 2.77 ± 0.043
TDSWESFFVSVRKAITV [FAS1] | 2.76 ± 0.27 | 2.4 ± 0.17 | – | –
ILKEEFPKIDSLAQNDC [RPN5] | 3.19 ± 0.15 | 3.24 ± 0.091 | 3.22 ± 0.056 | 3.38 ± 0.065
IDETMMDKPLNFRILKS [SRB5] | 2.95 ± 0.14 | 3.09 ± 0.13 | 2.76 ± 0.087 | 2.79 ± 0.13
YKATATGPKQQEITTNL [SCL1] | 3.17 ± 0.064 | 3 ± 0.11 | 2.93 ± 0.057 | 3.29 ± 0.078
KCVVIHNGSHRTVAGFS [ARP7] | 2.67 ± 0.051 | 2.74 ± 0.048 | 2.54 ± 0.051 | 2.67 ± 0.035
VQVGPMKVFVTKHLMPQ [RPB7] | 2.54 ± 0.047 | 2.37 ± 0.041 | 2.14 ± 0.062 | 2.52 ± 0.042
IIKYPVAFDNINTHIET [SNF2] | 2.45 ± 0.14 | 2.71 ± 0.11 | 2 ± 0.16 | 1.85 ± 0.067
QELLNAETLCFTVNVLY [RPN3] | 3.11 ± 0.075 | 2.75 ± 0.087 | 2.94 ± 0.065 | 2.87 ± 0.062
LLREYDILSQILYGLVD [YJL039C/NUP192] | 2.49 ± 0.081 | 2.06 ± 0.12 | 2.07 ± 0.11 | 2.19 ± 0.064
KDGRIRIFKITEKLSPL [YGL100W/SEH1] | 2.84 ± 0.079 | 2.85 ± 0.09 | 2.57 ± 0.08 | 2.79 ± 0.045
WSKESNYDCKVISIVGG [PRP28] | 3.06 ± 0.11 | 3.06 ± 0.11 | 2.31 ± 0.097 | 2.74 ± 0.094
GIKVSLLGIFDDIFIPQ [RPC25] | 1.78 ± 0.077 | 1.73 ± 0.092 | 2 ± 0.18 | 1.77 ± 0.081
NSTASSSNISPEQVYSL [ARP7] | 2.57 ± 0.05 | 2.78 ± 0.046 | 2.63 ± 0.051 | 2.88 ± 0.039

Sequence | protein stability index (doa10∆) | protein stability index (pdr5∆) | protein stability index (san1∆) | protein stability index (ubr1∆)
GQSTILVGSEIYEKLKN [CDC53] | 2.67 ± 0.14 | 3.12 ± 0.15 | 1.36 ± 0.21 | 1.96 ± 0.077
ATAIGKGSVAAKTFLEK [PRE8] | 2.13 ± 0.2 | 1.28 ± 0.17 | – | –
NGQRSNSIRAREVENSV [SMC1] | 3.31 ± 0.075 | 3.37 ± 0.058 | 3.36 ± 0.048 | 3.19 ± 0.072
VLEQLSGQTPVQSKARY [RPL11A] | 3.2 ± 0.24 | 2.98 ± 0.17 | 2.91 ± 0.077 | 3.15 ± 0.088
ELSVVLSGIIQDIYYLA [RRI2] | 2.32 ± 0.12 | 2.24 ± 0.14 | 2.02 ± 0.13 | 2.6 ± 0.092
SKSYTPRKLVLSSGENR [SMC4] | 1.65 ± 0.03 | 1.82 ± 0.041 | 1.93 ± 0.056 | 1.7 ± 0.037
SMRTIMKANPALYVLRE [PRP8] | – | 1.91 ± 0.29 | – | 1.37 ± 0.28
TGWITQSTPVLLNHGER [RPN1] | 2.61 ± 0.061 | 2.23 ± 0.044 | 1.88 ± 0.056 | 2.53 ± 0.037
TQPKSSSSMDMQANTNA [SSN3] | 2.55 ± 0.06 | 2.43 ± 0.046 | 3.13 ± 0.041 | 2.45 ± 0.039
KYKQLLLKDDTYQLCVR [RPN3] | 1.46 ± 0.073 | 1.78 ± 0.29 | – | 1.6 ± 0.18
FETETEVTFKNANIFSS [FAS1] | 3.15 ± 0.042 | 3.36 ± 0.055 | 3.35 ± 0.046 | 3.35 ± 0.037
IRGKILTGTVVSTKMHR [RPS11A] | 3 ± 0.066 | 2.99 ± 0.051 | 2.79 ± 0.052 | 2.9 ± 0.039
QQVPPLPDELTLSYDDI [DLS1] | 2.56 ± 0.045 | 2.83 ± 0.055 | 2.69 ± 0.05 | 2.74 ± 0.039
SVHLIECYKQLFLTAPD [YCS4] | 1.52 ± 0.24 | – | – | –
TDQSTEEEKSVDASPND [CSL4] | 2.88 ± 0.2 | 2.8 ± 0.21 | – | 3.06 ± 0.17
NLSQENDNEGKHISASI [YAR002W/NUP60] | 3.04 ± 0.075 | 3.34 ± 0.06 | 3.13 ± 0.054 | 3.12 ± 0.044
QQQQMQQQQQQQQQQQN [SSN2] | 2.31 ± 0.11 | 2.63 ± 0.098 | 2.8 ± 0.18 | 2.83 ± 0.1
PKKYKENNTDSARKELE [SMC1] | 2.96 ± 0.059 | 2.8 ± 0.065 | 3.09 ± 0.046 | 3.31 ± 0.057
LSEEETLLVIRRLHKVL [SNF2] | 1.7 ± 0.086 | 2.22 ± 0.07 | 1.84 ± 0.11 | 2.21 ± 0.053
ESLSEEHASLLVRDSKP [MED8] | 2.53 ± 0.084 | 3.04 ± 0.12 | 2.69 ± 0.086 | 2.59 ± 0.099
LKVQKLSRPSLPKIKTV [RPL35A] | 2.41 ± 0.062 | 3.11 ± 0.072 | 3.17 ± 0.057 | 3.17 ± 0.059
TENEKFISYHDKYLCML [NUT1] | 2.91 ± 0.056 | 3 ± 0.055 | 3.23 ± 0.049 | 3.11 ± 0.053
QVGERIKQTFKNDLFVI [RPO21] | 2.38 ± 0.066 | 2.36 ± 0.07 | 2.56 ± 0.06 | 2.49 ± 0.064
GNLSGKRVDFSGRTVIS [RPO31] | 3 ± 0.073 | 3.01 ± 0.081 | 3.36 ± 0.073 | 3.17 ± 0.089
RTLTAVHDKILEDLVFP [RPS7A] | 3.24 ± 0.13 | 3.15 ± 0.073 | 3.28 ± 0.059 | 3.25 ± 0.098
ESGLRPVSLLNSQLVGK [PCI8] | 3.31 ± 0.13 | 3.43 ± 0.096 | 3.27 ± 0.061 | 3.09 ± 0.27
RSNKIKVVKTPGGILRA [RPL34A] | 2.64 ± 0.068 | 2.12 ± 0.047 | 2.49 ± 0.064 | 2.2 ± 0.041
